In paper PMC5084080:

Target: LarB1-His (Rhodococcus jostii)
Test: BLI

LarA-MBP (from UniProt H7C8I3 1-46) (natural protein)
Kd: 440 nM
